T1: fibrils of IAPP (UniProt P10997 34-70)
T1 construct: Insoluble fibrils formed by 72 h at 37 °C; also called Islet Amyloid Polypeptide
T1 peptide (looked up): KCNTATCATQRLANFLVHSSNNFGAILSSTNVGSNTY

B1: humanized anti-peptide Aβ antibody VH1VL1 (LP09027) (antibody, human IgG4 S228P, kappa, V domains shown)
VH: EVQLQQSGPEVVKPGVSVKISCKGSGYTFTDYAMHWVKQSPGKSLEWIGVISTKYGKTNYNPSFQGQATMTVDKSSSTAYMELASLKASDSAIYYCARGDDGYSWGQGTSVTVSS
VL: EIVMTQTPLSLPVSLGDRASISCRSGQSLVHSNGNTYLHWYLQKPGQSPKLLIYTVSNRFSGVPDRFSGSGSGSDFTLTISRVEAEDLGVYFCSQNTFVPWTFGGGTKLEIKR
notes: Humanized from murine antibody 13C3; Made in FreeStyle 293-F cells; hetero-tetramer of 150 kDa; also called 13C3-VH1VL1; Antibody 1 VH1VL1

Legend:
[1] = biological target: B1; test: competitive ELISA, antibody 0.02 µg/ml pre-incubated with the peptide, free antibody read on coated Aβ1-42
Procedure: The antibody/antigen mixture is then deposited in each well and the microtitration plate is incubated for 1 h at room temperature. The free, uncomplexed antibody is determined according to the same ELISA protocol as described previously.

fibrils of IAPP = biological target: T1, fibrils of IAPP; test: ELISA on coated fibrils (IAPP at 0.5 µg/ml)
Procedure: 50 μl of fibrils of Aβ1-42 at 1 μg/ml and IAPP at 0.5 μg/ml are deposited in each well of a microtitration plate. The ELISA protocol is applied using serial dilutions of the humanized antibody starting from 10 μg/ml.

Row | Binder | binding result [1] | binding result (fibrils of IAPP)
1 | DAEFRHDSGYEVHHQK (peptide, UniProt P05067 672-687, looked up, range 1-16) [peptide Aβ1-16] | no binding | 
2 | GSNKGAIIGLM (peptide, UniProt P05067 696-706, looked up, range 25-35) [peptide Aβ25-35] | no binding | 
3 | B1 |  | no binding
